Earlier results, collected in PMC3514595.

Target: IL-15Rα (UniProt Q13261)
UniProt Q13261, sequence (Q13261 31-205): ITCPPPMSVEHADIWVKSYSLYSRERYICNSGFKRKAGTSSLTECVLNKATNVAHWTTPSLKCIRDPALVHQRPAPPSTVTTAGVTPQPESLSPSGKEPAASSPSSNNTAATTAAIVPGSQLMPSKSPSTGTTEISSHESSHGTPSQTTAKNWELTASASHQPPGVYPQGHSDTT

- Kd: 0.038 nM
Substance: IL-15 (from UniProt P40933)
